This is an account of results in patent US20020045192A1, “Arf and HDM2 interaction domains and methods of use thereof” (St. Jude Children's Research Hospital, priority 2001, published 2002).

Experiment [1] addresses T1, GFP-p19^Arf (Mus musculus, UniProt Q64364).
T1 construct: expressed in transfected cells; host or cells: NIH 3T3 Arf-/- cells
T1 sequence (Q64364 1-169): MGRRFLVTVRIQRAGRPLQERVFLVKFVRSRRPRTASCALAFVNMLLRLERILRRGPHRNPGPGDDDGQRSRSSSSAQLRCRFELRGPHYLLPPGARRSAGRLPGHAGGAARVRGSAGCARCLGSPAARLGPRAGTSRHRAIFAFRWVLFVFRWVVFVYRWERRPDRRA
The experiment can be described thus: Nuclear microinjection and live cell imaging of Texas Red labeled Hdm2 constructs in NIH 3T3 cells lacking Arf. Type of experiment: cell-based. As to conditions: NIH 3T3 Arf-/- cells, nuclear microinjection. The method, then:
Proteins for fluorescence microimaging studies were covalently modified using an amine-reactive, sulfosuccinimidyl ester of Texas Red™ (Molecular Probes, Inc., Cat. # C-1171). In brief, purified Hdm2-derived proteins were dialyzed into 100 mM sodium bicarbonate buffer, pH 8.3 at 2-4 mg/ml. The Texas Red™ dye was dissolved in dimethylsulfoxide at 10 mg/ml. Protein and dye 3:1 (vol:vol) were reacted for 1 hour at room temperature followed by purification using size-exclusion chromatography (NAP 5 G-25 columns, Amersham Pharmacia Biotech, Inc.). Labeled protein bands migrated more slowly than unlabeled protein in SDS-polyacrylamide gels consistent with the covalent attachment of dye.
NIH 3T3 Arf^−/− cells passage 10-15 were cultured in Dulbecco's modified Eagle's medium (Dulbecco's modified Eagle's medium (DMEM); Gibco-Invitrogen, Inc.), 10% fetal bovine serum (FBS) at 37° C., 7% CO2. 24 hours prior to transfection, cells were plated on 35 mm dishes coated with poly-D-Lysine (Mattek, Corp.) at a density of 3×10^4 cells per dish. […] An Axiovert 135 TV inverted fluorescence microscope with an automated stage controller (Carl Zeiss, Inc.) and circulating water bath heater (Fisher) was used for both microinjection and imaging. […]

The target of experiment [2] is T2, mArfN37 (Mus musculus, UniProt Q64364).
T2 construct: An N-terminal fragment of mouse p19^Arf corresponding to residues 1-37 (mArfN37) was purified in a similar manner; made in house
T2 sequence (Q64364 1-37 limits assumed): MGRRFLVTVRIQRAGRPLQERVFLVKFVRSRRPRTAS
The experiment can be described thus: SPR binding of Hdm2 constructs and Hdm2 peptides to immobilized His-tagged mArfN37. Particulars: His-mArfN37 captured by covalently linked His antibody. The procedure: Binding studies were performed using a Biacore 3000 surface plasmon resonance (SPR) instrument (Biacore, Inc.). A Tetra-His™ Antibody (Qiagen, Inc.; Cat. #34670) was covalently attached to a carboxymethylated gold surface (C-1 chip; Biacore, Inc.). The carboxymethyl groups on the surface were activated with N-ethyl-N′-(3-dimethylaminopropyl) carbodiimide (EDC) and N-hydroxysuccinimide (NHS) and the antibody was attached at pH 7.4 in 20 mM sodium phosphate buffer, 150 mM NaCl (PBS). Reactive sites remaining on the surface were blocked by reaction with ethanolamine. […] Binding was measured by flowing the non-His-tagged analyte through the reference and ligand-containing flow cells in sequence. […] Changes in the SPR response due to solvent differences and the injection process were monitored by injection of HBS-N buffer alone. […]
It has been previously shown that a fragment of mouse p19^Arf containing the N-terminal 37 amino acids (mArfN37) can (i) bind Hdm2, (ii) cause the relocalization of Hdm2 to nucleoli, and (iii) induce cell cycle arrest in MEFs [see, U.S. patent application Ser. No. 09/480,718, Filed Jan. […] However, because mArfN37 is a relatively small polypeptide, it was determined whether it could bind a correspondingly small segment of Hdm2. […]
A general note: In SPR one partner is held on a chip, and binding of the other changes the refractive index at the surface.

B1: Hdm2 277-350: Texas Red labeled Hdm2 deletion construct containing residues 277-350 (protein)
chain: QVTVYQAGESDTDSFEEDPEISLADYWKCTSCNEMNPPLPSHCNRCWALRENWLPEDKGKDKGEISEKAKLENS
Take B1: the “localization of Texas Red labeled Hdm2 construct when GFP-p19^Arf is expressed” value in experiment [1] is given as “localized in the nucleoplasm rather than in nucleoli”.

B2: Hdm2 210-275: Fragment of Hdm2 corresponding to residues 210-275 of SEQ ID NO:8 (protein, listed as Homo sapiens)
chain: SSSSESTGTPSNPDLDAGVSEHSGDWLDQDSVSDQFSVEFEVESLDSEDYSLSEEGQELSDEDDEV
For B2, in experiment [2], the “binding to His-tagged mArfN37 immobilized on the SPR biosensor surface” value is on record as “bind tightly”. In addition, the “localization of Texas Red labeled Hdm2 construct when GFP-p19^Arf is expressed” value in experiment [1] is “nucleolar localization”.
